Test results reported in US20150344540A1, “NOVEL GLP-1 RECEPTOR AGONISTS WITH CHOLESTEROL EFFLUX ACTIVITY” (NOVO NORDISK A/S, priority 2012, published 2015).
Where no end group is shown, it is not given here. [ ]: non-standard residue; d: D form. Aib = CC(C)(N)C(=O)O

B1: [Aib8,Glu23,Val25,Glu34,Lys35,Aib36,Lys37]-GLP-1-(7-37)-peptidyl-His-Phe-Leu amide (peptide)
peptide: H[Aib]EGTFTSDVSSYLEGEAVKEFIAWLVEK[Aib]KHFL-NH2
modifications: N-terminus assumed
SMILES: CC[C@H](C)[C@H](NC(=O)[C@H](Cc1ccccc1)NC(=O)[C@H](CCC(=O)O)NC(=O)[C@H](CCCCN)NC(=O)[C@@H](NC(=O)[C@H](C)NC(=O)[C@H](CCC(=O)O)NC(=O)CNC(=O)[C@H](CCC(=O)O)NC(=O)[C@H](CC(C)C)NC(=O)[C@H](Cc1ccc(O)cc1)NC(=O)[C@H](CO)NC(=O)[C@H](CO)NC(=O)[C@@H](NC(=O)[C@H](CC(=O)O)NC(=O)[C@H](CO)NC(=O)[C@@H](NC(=O)[C@H](Cc1ccccc1)NC(=O)[C@@H](NC(=O)CNC(=O)[C@H](CCC(=O)O)NC(=O)C(C)(C)NC(=O)[C@@H](N)Cc1c[nH]cn1)[C@@H](C)O)[C@@H](C)O)C(C)C)C(C)C)C(=O)N[C@@H](C)C(=O)N[C@@H](Cc1c[nH]c2ccccc12)C(=O)N[C@@H](CC(C)C)C(=O)N[C@H](C(=O)N[C@@H](CCC(=O)O)C(=O)N[C@@H](CCCCN)C(=O)NC(C)(C)C(=O)N[C@@H](CCCCN)C(=O)N[C@@H](Cc1c[nH]cn1)C(=O)N[C@@H](Cc1ccccc1)C(=O)N[C@@H](CC(C)C)C(N)=O)C(C)C
B2: [Aib2,Glu21,Aib30,Leu31,Glu32,Phe33,Leu34,Glu35,Leu36,Leu37]-Exendin-4-(1-37)-peptide amide (peptide)
peptide: H[Aib]EGTFTSDLSKQMEEEAVREFIEWLKNG[Aib]LEFLELL-NH2
modifications: N-terminus assumed
SMILES: CC[C@H](C)[C@H](NC(=O)[C@H](Cc1ccccc1)NC(=O)[C@H](CCC(=O)O)NC(=O)[C@H](CCCNC(=N)N)NC(=O)[C@@H](NC(=O)[C@H](C)NC(=O)[C@H](CCC(=O)O)NC(=O)[C@H](CCC(=O)O)NC(=O)[C@H](CCC(=O)O)NC(=O)[C@H](CCSC)NC(=O)[C@H](CCC(N)=O)NC(=O)[C@H](CCCCN)NC(=O)[C@H](CO)NC(=O)[C@H](CC(C)C)NC(=O)[C@H](CC(=O)O)NC(=O)[C@H](CO)NC(=O)[C@@H](NC(=O)[C@H](Cc1ccccc1)NC(=O)[C@@H](NC(=O)CNC(=O)[C@H](CCC(=O)O)NC(=O)C(C)(C)NC(=O)[C@@H](N)Cc1c[nH]cn1)[C@@H](C)O)[C@@H](C)O)C(C)C)C(=O)N[C@@H](CCC(=O)O)C(=O)N[C@@H](Cc1c[nH]c2ccccc12)C(=O)N[C@@H](CC(C)C)C(=O)N[C@@H](CCCCN)C(=O)N[C@@H](CC(N)=O)C(=O)NCC(=O)NC(C)(C)C(=O)N[C@@H](CC(C)C)C(=O)N[C@@H](CCC(=O)O)C(=O)N[C@@H](Cc1ccccc1)C(=O)N[C@@H](CC(C)C)C(=O)N[C@@H](CCC(=O)O)C(=O)N[C@@H](CC(C)C)C(=O)N[C@@H](CC(C)C)C(N)=O
B3: [Aib8,Glu23,Val25,Glu34,Aib36,Lys37]-GLP-1-(7-37)-peptidyl-Glu-Phe-Leu amide (peptide)
peptide: H[Aib]EGTFTSDVSSYLEGEAVKEFIAWLVEG[Aib]KEFL-NH2
modifications: N-terminus assumed
SMILES: CC[C@H](C)[C@H](NC(=O)[C@H](Cc1ccccc1)NC(=O)[C@H](CCC(=O)O)NC(=O)[C@H](CCCCN)NC(=O)[C@@H](NC(=O)[C@H](C)NC(=O)[C@H](CCC(=O)O)NC(=O)CNC(=O)[C@H](CCC(=O)O)NC(=O)[C@H](CC(C)C)NC(=O)[C@H](Cc1ccc(O)cc1)NC(=O)[C@H](CO)NC(=O)[C@H](CO)NC(=O)[C@@H](NC(=O)[C@H](CC(=O)O)NC(=O)[C@H](CO)NC(=O)[C@@H](NC(=O)[C@H](Cc1ccccc1)NC(=O)[C@@H](NC(=O)CNC(=O)[C@H](CCC(=O)O)NC(=O)C(C)(C)NC(=O)[C@@H](N)Cc1c[nH]cn1)[C@@H](C)O)[C@@H](C)O)C(C)C)C(C)C)C(=O)N[C@@H](C)C(=O)N[C@@H](Cc1c[nH]c2ccccc12)C(=O)N[C@@H](CC(C)C)C(=O)N[C@H](C(=O)N[C@@H](CCC(=O)O)C(=O)NCC(=O)NC(C)(C)C(=O)N[C@@H](CCCCN)C(=O)N[C@@H](CCC(=O)O)C(=O)N[C@@H](Cc1ccccc1)C(=O)N[C@@H](CC(C)C)C(N)=O)C(C)C
B4: [Aib8,Glu23,Val25,Leu27,Glu34,Lys35,Aib36,Lys37]-GLP-1-(7-37)-peptidyl-Glu-Phe-Leu amide (peptide)
peptide: H[Aib]EGTFTSDVSSYLEGEAVKLFIAWLVEK[Aib]KEFL-NH2
modifications: N-terminus assumed
SMILES: CC[C@H](C)[C@H](NC(=O)[C@H](Cc1ccccc1)NC(=O)[C@H](CC(C)C)NC(=O)[C@H](CCCCN)NC(=O)[C@@H](NC(=O)[C@H](C)NC(=O)[C@H](CCC(=O)O)NC(=O)CNC(=O)[C@H](CCC(=O)O)NC(=O)[C@H](CC(C)C)NC(=O)[C@H](Cc1ccc(O)cc1)NC(=O)[C@H](CO)NC(=O)[C@H](CO)NC(=O)[C@@H](NC(=O)[C@H](CC(=O)O)NC(=O)[C@H](CO)NC(=O)[C@@H](NC(=O)[C@H](Cc1ccccc1)NC(=O)[C@@H](NC(=O)CNC(=O)[C@H](CCC(=O)O)NC(=O)C(C)(C)NC(=O)[C@@H](N)Cc1c[nH]cn1)[C@@H](C)O)[C@@H](C)O)C(C)C)C(C)C)C(=O)N[C@@H](C)C(=O)N[C@@H](Cc1c[nH]c2ccccc12)C(=O)N[C@@H](CC(C)C)C(=O)N[C@H](C(=O)N[C@@H](CCC(=O)O)C(=O)N[C@@H](CCCCN)C(=O)NC(C)(C)C(=O)N[C@@H](CCCCN)C(=O)N[C@@H](CCC(=O)O)C(=O)N[C@@H](Cc1ccccc1)C(=O)N[C@@H](CC(C)C)C(N)=O)C(C)C
B5: [Aib8,Glu23,Val25,Glu34,Lys35,Aib36]-GLP-1-(7-37)-peptidyl-Glu-Phe-Leu amide (peptide)
peptide: H[Aib]EGTFTSDVSSYLEGEAVKEFIAWLVEK[Aib]GEFL-NH2
modifications: N-terminus assumed
SMILES: CC[C@H](C)[C@H](NC(=O)[C@H](Cc1ccccc1)NC(=O)[C@H](CCC(=O)O)NC(=O)[C@H](CCCCN)NC(=O)[C@@H](NC(=O)[C@H](C)NC(=O)[C@H](CCC(=O)O)NC(=O)CNC(=O)[C@H](CCC(=O)O)NC(=O)[C@H](CC(C)C)NC(=O)[C@H](Cc1ccc(O)cc1)NC(=O)[C@H](CO)NC(=O)[C@H](CO)NC(=O)[C@@H](NC(=O)[C@H](CC(=O)O)NC(=O)[C@H](CO)NC(=O)[C@@H](NC(=O)[C@H](Cc1ccccc1)NC(=O)[C@@H](NC(=O)CNC(=O)[C@H](CCC(=O)O)NC(=O)C(C)(C)NC(=O)[C@@H](N)Cc1c[nH]cn1)[C@@H](C)O)[C@@H](C)O)C(C)C)C(C)C)C(=O)N[C@@H](C)C(=O)N[C@@H](Cc1c[nH]c2ccccc12)C(=O)N[C@@H](CC(C)C)C(=O)N[C@H](C(=O)N[C@@H](CCC(=O)O)C(=O)N[C@@H](CCCCN)C(=O)NC(C)(C)C(=O)NCC(=O)N[C@@H](CCC(=O)O)C(=O)N[C@@H](Cc1ccccc1)C(=O)N[C@@H](CC(C)C)C(N)=O)C(C)C

Molecular target: human GLP-1 receptor (human, UniProt P43220)
Experiment: cell-based or functional assay

Binder | CRE luciferase EC50, 0% HSA [nM] | CRE luciferase EC50, 1% HSA [nM]
B1 | 0.205 | 0.062
B2 | 0.067 | 0.032
B3 | 0.034 | 0.013
B4 | 0.269 | 0.104
B5 | 0.039 | 0.013
